Data reported in US20120021993A1 (AJOU UNIVERSITY INDUSTRY ACADEMIC COOPERATION FOUNDATION, published 2012).
Read-outs that look alike come from different tables or passages of the source.

Columns and labels:
cell surface DR5 = cell surface DR5 (human, UniProt O14763 56-440); assay: cell-based or functional assay
[1] = target: T1, human-derived cell death receptor 5, extracellular domain (amino acid residues 1-130), 6xHis tag (human, UniProt O14763 56-210); assay: ELISA, coated DR5, A405
T1 construct: extracellular domain; Expressed in E. coli; biotinylated for sorting and flow cytometry; also called DR5; TRAIL-receptor 2

[2] = target: T1, human-derived cell death receptor 5, …; assay: ELISA, coated target, A405
[3] = target: T1, human-derived cell death receptor 5, …; assay: ELISA on coated DR5, KD506 alone, A405
[4] = target: T1, human-derived cell death receptor 5, …; assay: ELISA, coated target, A405 [upper panel]
Procedure: (§1) In order to measure the affinity and cross reactivity of the anti-DR4, -DR5 and -TNFα protein scaffold variants based on the Kringle domain structure to the target molecules, an enzyme-linked immunosorbent assay (ELISA) was performed. The target molecules DR4, DR5, TNFα and DcR1, DcR2 were attached to a 96 well EIA/RIA plate (COSTARCorning In., USA) by its reaction at 37° C. for 1 hour, and washed three times with 0.1% PBST (0.1% Tween20, pH 7.4, 137 mM NaCl, 10 mM Phosphate, 2.7 mM KCl, SIGMA-ALDRICH Co., USA) for 10 minutes. The target molecules were attached for 1 hour to a 96 well EIA/RIA plate in 1% PBSB (1% BSA, pH 7.4, 137 mM NaCl, 10 mM Phosphate, 2.7 mM KCl, SIGMA-ALDRICH Co., USA), and then washed three times with 0.1% PBST (0.1% Tween 20, pH 7.4, 137 mM NaCl, 10 mM Phosphate, 2.7 mM KCl, SIGMA-ALDRICH Co., USA) for 10 minutes. Then, the anti-DR4, -DR5 and -TNFα Kringle domain variants were bound, and washed three times with 0.1% PBST for 10 minutes. The anti-DR4, -DR5 and -TNFα Kringle domain variants were primarily bound to mouse-derived anti-c-myc 9e10 mAb (Ig Therapy, Korea), and secondarily bound to alkaline phosphatase (AP)-conjugated anti-mouse mAb (Sigma). Each of the Kringle domain variants was reacted with […] (pNPP, Sigma-aldrich Co., USA) and quantified at an absorbance of 405 nm.

cell surface DR4 = target: T2, cell surface DR4 (human, UniProt O00220 24-468); assay: flow cytometry on BJAB(DR5-/-) cells, MFI
T2 construct: whole, on cells; also called DR4 on cell surfaces

[5] = target: T3, human-derived cell death receptor 4, extracellular domain (amino acid residues 1-216), 6xHis tag (human, UniProt O00220 24-239); assay: yeast display, flow cytometry MFI [panel KD506]
T3 construct: extracellular domain; Expressed in E. coli; biotinylated for sorting and flow cytometry; residues 1-216; also called DR4; TRAIL-receptor 1

DcR1 [6] = target: T4, DcR1 (UniProt O14798 26-221, limits assumed); assay: yeast display, flow cytometry MFI [panel KD506]
T4 sequence (looked up): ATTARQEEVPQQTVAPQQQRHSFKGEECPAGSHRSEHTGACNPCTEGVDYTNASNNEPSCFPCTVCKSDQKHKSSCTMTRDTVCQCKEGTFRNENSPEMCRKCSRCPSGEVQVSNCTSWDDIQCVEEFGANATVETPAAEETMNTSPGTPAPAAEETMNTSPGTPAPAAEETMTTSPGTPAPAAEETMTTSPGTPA

DcR2 [7] = target: T5, DcR2 (UniProt Q9UBN6 56-211, limits assumed); assay: yeast display, flow cytometry MFI [panel KD506]
T5 sequence (looked up): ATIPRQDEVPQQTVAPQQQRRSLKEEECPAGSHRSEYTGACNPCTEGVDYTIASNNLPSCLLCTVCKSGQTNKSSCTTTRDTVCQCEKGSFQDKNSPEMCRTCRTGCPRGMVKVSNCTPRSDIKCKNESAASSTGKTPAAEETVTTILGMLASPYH

[8] = target: T1, human-derived cell death receptor 5, …; assay: competitive ELISA on coated DR5, biotinylated KD506 with TRAIL (amount not given), A405
[9] = target: T6, TNFα, extracellular domain (amino acid residue 1-157), 6xHis tag (human, UniProt P01375 57-233); assay: cell-based or functional assay
DcR1 [10] = target: T4, DcR1; assay: yeast display, flow cytometry MFI
DcR2 [11] = target: T5, DcR2; assay: yeast display, flow cytometry MFI
[12] = target: T6, TNFα, extracellular domain (amino acid …); assay: ELISA, coated target, A405
[13] = target: T6, TNFα, extracellular domain (amino acid …); assay: ELISA, coated target, A405; remark: listed apart in the source
Procedure: as §1

[14] = target: T6, TNFα, extracellular domain (amino acid …); assay: affinity ELISA, target coated on the plate
Procedure: as §1
In order to analyze the affinities of the Fc-fused anti-DR4, -DR5 and -TNFα Kringle domains to target molecules, the affinities of the Fc-fused anti-DR4, -DR5 and -TNFα Kringle domains to the target molecules were analyzed using ELISA, as described in Example 8.

[15] = target: T6, TNFα, extracellular domain (amino acid …); assay: ELISA, homo-dimer against monomer
[16] = target: T6, TNFα, extracellular domain (amino acid …); assay: ELISA, target coated on the plate

T6 sequence (P01375 other isoform, or with tags, fused parts or gaps limits assumed): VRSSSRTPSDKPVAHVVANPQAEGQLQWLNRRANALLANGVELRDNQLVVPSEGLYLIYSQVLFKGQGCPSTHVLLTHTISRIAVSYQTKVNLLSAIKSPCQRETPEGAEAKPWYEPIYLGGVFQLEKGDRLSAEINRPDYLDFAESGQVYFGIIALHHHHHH

B1: KD506 (designed binder)
chain: CPEDRGHEYDGDGDKTNRGHGCQYWDQNKPHHHGHRDKDKFKHRIKKNYCRNPDYETGPWCFTNRYRNKNELCHEPRC
notes: Soluble monomer from Pichia pastoris; also called anti-DR5 Kringle domain variant KD506; KR506; not shown: C-terminal myc tag-6xHis tag of pPICZaA
Q: With B1 as the binder, how does the “EC50 (a concentration of protein causing a 50% cell death), HL60, MTT assay” value (cell surface DR5) read?
A: 210 nM

Q: What about the “EC50 (a concentration of protein causing a 50% cell death), Jurkat, MTT assay” value (cell surface DR5) of the same binder?
A: 200 nM

Q: And the “EC50 (read off the curve)” value [1]?
A: ~300 nM

Q: And the “EC50 (read off the curve)” value [2]?
A: ~300 nM

Q: And the “EC50 (read off the curve)” value [3]?
A: ~100 nM

Q: What about the “EC50 (read off the curve)” value [4] of the same binder?
A: ~300 nM

Q: Does B1 bind (cell surface DR4)?
A: no binding

Q: Does B1 bind [5]?
A: no binding

Q: Does B1 bind (DcR1 [6])?
A: no binding

Q: Does B1 bind (DcR2 [7])?
A: no binding

Q: What about the “EC50 (read off the curve)” value [8] of the same binder?
A: ~100 nM

B2: KDT26 (designed binder)
chain: CPRDQGNQYDGFRYGTYRGHRCQHWTRDEPHFHGFGHQHKYTYRHKKNYCRNPDARPRPWCFTHRYQNRNELCHQPRC
notes: Soluble monomer from Pichia pastoris; also called KRT26; anti-TNFα Kringle domain variant KDT26; not shown: C-terminal myc tag-6xHis tag of pPICZaA
Q: With B2 as the binder, how does the “IC50 (50% inhibiting concentration) of TNFα-mediated cell death, WEHI 164, MTT assay” value [9] read?
A: 780 nM

Q: Does B2 bind (DcR1 [10])?
A: no binding

Q: Does B2 bind (DcR2 [11])?
A: no binding

Q: What about the “EC50 (read off the curve)” value [12] of the same binder?
A: ~80 nM

Q: What about the “EC50 (read off the curve)” value [13] of the same binder?
A: ~80 nM

B3: KDT26-Fc (Fc fusion)
chain: B2 chain
notes: Disulfide-linked dimer from Pichia pastoris; also called KRT26-Fc; Fc-fused anti-TNFα Kringle domain KDT26; not shown: Fc domain region from a hinge of human immunoglobulin G1
Q: B3 was tested. Which “IC50 (50% inhibiting concentration) of TNFα-mediated cell death, WEHI 164, MTT assay” value [9] did it give?
A: 5.2 nM

Q: What about the affinity [14] of the same binder?
A: 3.8 nM

B4: anti-TNFα KDT26 homo-dimer (designed binder)
chain: CPRDQGNQYDGFRYGTYRGHRCQHWTRDEPHFHGFGHQHKYTYRHKKNYCRNPDARPRPWCFTHRYQNRNELCHQPRCGGGGSGGGGSGGGGSGGGGSCPRDQGNQYDGFRYGTYRGHRCQHWTRDEPHFHGFGHQHKYTYRHKKNYCRNPDARPRPWCFTHRYQNRNELCHQPRC
Q: With B4 as the binder, how does the “fold increase of affinity against the monomer” value [15] read?
A: ~10 fold

Q: And the affinity value [16]?
A: 8 nM
